Sequences and labels used below:
B1: KCTD7 (Sf9, for the cryo-EM complex) (natural protein)
chain: MVVVTGREPDSRHSDGAMSSSEAEDDFLEPATPTATQAGHGLPLLPQEFPEVVPLNIGGAHFTTRLSTLRRYEDTMLAAMFSGRHYIPTDSEGRYFIDRDGTHFGDVLNFLRSGDLPPREHVRAVHKEAQYYAIGPLLEQLENMQPLKGEKVRQAFLGLMPYYKDHLERIVEIARLRAVQRKARFAKLKVCVFKEEMPITPYECPLLNSLRFERSESDGQLFEHHCEVDVSFGPWEAVADVYDLLHCLVTDLSAQGLTVDHQCIGVCDKHLVNHYYCKRPIYEFKITWW
B2: FLAG-tagged KCTD7 WT (E. coli, for pull-down) (natural protein)
chain: MVVVTGREPDSRHSDGAMSSSEAEDDFLEPATPTATQAGHGLPLLPQEFPEVVPLNIGGAHFTTRLSTLRRYEDTMLAAMFSGRHYIPTDSEGRYFIDRDGTHFGDVLNFLRSGDLPPREHVRAVHKEAQYYAIGPLLEQLENMQPLKGEKVRQAFLGLMPYYKDHLERIVEIARLRAVQRKARFAKLKVCVFKEEMPITPYECPLLNSLRFERSESDGQLFEHHCEVDVSFGPWEAVADVYDLLHCLVTDLSAQGLTVDHQCIGVCDKHLVNHYYCKRPIYEFKITWW
B3: FLAG-tagged KCTD7 R65A (natural protein)
chain: MVVVTGREPDSRHSDGAMSSSEAEDDFLEPATPTATQAGHGLPLLPQEFPEVVPLNIGGAHFTTALSTLRRYEDTMLAAMFSGRHYIPTDSEGRYFIDRDGTHFGDVLNFLRSGDLPPREHVRAVHKEAQYYAIGPLLEQLENMQPLKGEKVRQAFLGLMPYYKDHLERIVEIARLRAVQRKARFAKLKVCVFKEEMPITPYECPLLNSLRFERSESDGQLFEHHCEVDVSFGPWEAVADVYDLLHCLVTDLSAQGLTVDHQCIGVCDKHLVNHYYCKRPIYEFKITWW
B4: FLAG-tagged KCTD7 S67A (natural protein)
chain: MVVVTGREPDSRHSDGAMSSSEAEDDFLEPATPTATQAGHGLPLLPQEFPEVVPLNIGGAHFTTRLATLRRYEDTMLAAMFSGRHYIPTDSEGRYFIDRDGTHFGDVLNFLRSGDLPPREHVRAVHKEAQYYAIGPLLEQLENMQPLKGEKVRQAFLGLMPYYKDHLERIVEIARLRAVQRKARFAKLKVCVFKEEMPITPYECPLLNSLRFERSESDGQLFEHHCEVDVSFGPWEAVADVYDLLHCLVTDLSAQGLTVDHQCIGVCDKHLVNHYYCKRPIYEFKITWW
B5: FLAG-tagged KCTD5 full-length (FL) (natural protein)
chain: MAENHCELLPPAPSGLGAGLGGGLCRRCSAGMGALAQRPGGVSKWVRLNVGGTYFLTTRQTLCRDPKSFLYRLCQADPDLDSDKDETGAYLIDRDPTYFGPVLNYLRHGKLVINKDLAEEGVLEEAEFYNITSLIKLVKDKIRERDSRISQMPVKHVYRVLQCQEEELTQMVSTMSDGWKFEQLVSIGSSYNYGNEDQAEFLCVVSKELHNTPYGTTSEPSEKAKILQERGSRM
B6: FLAG-tagged KCTD5 D93A (natural protein)
chain: MAENHCELLPPAPSGLGAGLGGGLCRRCSAGMGALAQRPGGVSKWVRLNVGGTYFLTTRQTLCRDPKSFLYRLCQADPDLDSDKDETGAYLIARDPTYFGPVLNYLRHGKLVINKDLAEEGVLEEAEFYNITSLIKLVKDKIRERDSRISQMPVKHVYRVLQCQEEELTQMVSTMSDGWKFEQLVSIGSSYNYGNEDQAEFLCVVSKELHNTPYGTTSEPSEKAKILQERGSRM
B7: FLAG-tagged KCTD5 R72A (natural protein)
chain: MAENHCELLPPAPSGLGAGLGGGLCRRCSAGMGALAQRPGGVSKWVRLNVGGTYFLTTRQTLCRDPKSFLYALCQADPDLDSDKDETGAYLIDRDPTYFGPVLNYLRHGKLVINKDLAEEGVLEEAEFYNITSLIKLVKDKIRERDSRISQMPVKHVYRVLQCQEEELTQMVSTMSDGWKFEQLVSIGSSYNYGNEDQAEFLCVVSKELHNTPYGTTSEPSEKAKILQERGSRM
B8: FLAG-tagged KCTD5 E167A (natural protein)
chain: MAENHCELLPPAPSGLGAGLGGGLCRRCSAGMGALAQRPGGVSKWVRLNVGGTYFLTTRQTLCRDPKSFLYRLCQADPDLDSDKDETGAYLIDRDPTYFGPVLNYLRHGKLVINKDLAEEGVLEEAEFYNITSLIKLVKDKIRERDSRISQMPVKHVYRVLQCQEEALTQMVSTMSDGWKFEQLVSIGSSYNYGNEDQAEFLCVVSKELHNTPYGTTSEPSEKAKILQERGSRM
B9: FLAG-tagged KCTD5 R159A (natural protein)
chain: MAENHCELLPPAPSGLGAGLGGGLCRRCSAGMGALAQRPGGVSKWVRLNVGGTYFLTTRQTLCRDPKSFLYRLCQADPDLDSDKDETGAYLIDRDPTYFGPVLNYLRHGKLVINKDLAEEGVLEEAEFYNITSLIKLVKDKIRERDSRISQMPVKHVYAVLQCQEEELTQMVSTMSDGWKFEQLVSIGSSYNYGNEDQAEFLCVVSKELHNTPYGTTSEPSEKAKILQERGSRM
B10: FLAG-tagged KCTD5 W179A (natural protein)
chain: MAENHCELLPPAPSGLGAGLGGGLCRRCSAGMGALAQRPGGVSKWVRLNVGGTYFLTTRQTLCRDPKSFLYRLCQADPDLDSDKDETGAYLIDRDPTYFGPVLNYLRHGKLVINKDLAEEGVLEEAEFYNITSLIKLVKDKIRERDSRISQMPVKHVYRVLQCQEEELTQMVSTMSDGAKFEQLVSIGSSYNYGNEDQAEFLCVVSKELHNTPYGTTSEPSEKAKILQERGSRM

10 molecules from article PMC10348674 (Science Advances, 2023) can be followed below.

T1 sequence (Q13618 23-388 I342R/L346D): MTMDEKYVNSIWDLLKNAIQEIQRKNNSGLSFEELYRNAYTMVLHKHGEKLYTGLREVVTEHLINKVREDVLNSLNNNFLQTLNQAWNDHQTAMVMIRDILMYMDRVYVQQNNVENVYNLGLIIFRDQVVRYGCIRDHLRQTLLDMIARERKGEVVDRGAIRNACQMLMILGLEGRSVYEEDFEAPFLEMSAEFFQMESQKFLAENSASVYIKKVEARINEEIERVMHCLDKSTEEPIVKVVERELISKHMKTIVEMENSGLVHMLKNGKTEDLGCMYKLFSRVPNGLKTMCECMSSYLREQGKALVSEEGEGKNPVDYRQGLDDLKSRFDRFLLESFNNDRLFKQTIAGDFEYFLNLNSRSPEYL

The target in one series is T1, Cul3NΔ22 (23-388, I342R, and L346D) (UniProt Q13618 23-388, I342R | L346D). Put plainly: cryo-EM structure.
Turning to B1, the binding result is reported as “binds”.

A further series deals with the molecule itself. Put plainly: cryo-EM structure.
B1: the stoichiometry N – broadly, a count of units in the complex or per binding partner – is 5.

Another series deals with T1, Cul3NΔ22 (23-388, I342R, and L346D). Put plainly: pull-down.
On to B2, for which the binding result is reported as “binds”.

With B3, the binding result is listed as “binds”.

For B4, the binding result was “binds”.

As to B5, the binding result is given as “binds”.

As for B6, the binding result is listed as “binds”.

On to B7, for which the binding result is on record as “binds”.

Turning to B8, the binding result was “binds”.

In the case of B9, the binding result is on record as “binds”.

Consider B10, for which the binding result is listed as “binds”.
